Test results from PMC5104516, “TRIM28 regulates the nuclear accumulation and toxicity of both alpha-synuclein and tau” (eLife, 2016).

Experiments:
[1] = target: α-Syn:nYFP (UniProt P37840 1-140); assay: split reporter (BiFC, NanoBiT); split-YFP; stable cell lines with α-Syn or tau fused to the N-terminal portion of YFP (bait), transfected with 250 ng prey plasmid with the C-terminal portion of YFP; fluorescence by flow cytometry at 48 hr and microscopy up to 72 hr; conditions: partners not purified
[2] = target: T1, tau:nYFP (UniProt P10636-8 1-441); assay: as above; conditions: partners not purified
T1 construct: microtubule associated protein tau; Plasmids and their construction are in Supplementary file 2; also called nYFP-tau; tau fused to an N-terminal moiety of YFP
T1 sequence (P10636 other isoform, or with tags, fused parts or gaps): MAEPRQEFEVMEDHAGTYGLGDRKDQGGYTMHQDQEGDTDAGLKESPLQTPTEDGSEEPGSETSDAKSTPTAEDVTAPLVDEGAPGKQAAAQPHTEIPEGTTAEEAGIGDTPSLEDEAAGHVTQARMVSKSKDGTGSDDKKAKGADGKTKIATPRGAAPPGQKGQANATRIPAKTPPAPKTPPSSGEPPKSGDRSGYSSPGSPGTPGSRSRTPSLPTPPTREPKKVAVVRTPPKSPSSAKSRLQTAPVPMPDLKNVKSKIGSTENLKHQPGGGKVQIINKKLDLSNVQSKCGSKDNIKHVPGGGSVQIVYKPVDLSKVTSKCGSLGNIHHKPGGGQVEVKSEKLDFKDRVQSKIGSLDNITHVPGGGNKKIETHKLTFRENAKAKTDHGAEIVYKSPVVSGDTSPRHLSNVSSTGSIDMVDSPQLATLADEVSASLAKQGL

B1: TRIM28:cYFP (natural protein, human, UniProt Q13263 1-835, looked up)
chain: MAASAAAASAAAASAASGSPGPGEGSAGGEKRSTAPSAAASASASAAASSPAGGGAEALELLEHCGVCRERLRPEREPRLLPCLHSACSACLGPAAPAAANSSGDGGAAGDGTVVDCPVCKQQCFSKDIVENYFMRDSGSKAATDAQDANQCCTSCEDNAPATSYCVECSEPLCETCVEAHQRVKYTKDHTVRSTGPAKSRDGERTVYCNVHKHEPLVLFCESCDTLTCRDCQLNAHKDHQYQFLEDAVRNQRKLLASLVKRLGDKHATLQKSTKEVRSSIRQVSDVQKRVQVDVKMAILQIMKELNKRGRVLVNDAQKVTEGQQERLERQHWTMTKIQKHQEHILRFASWALESDNNTALLLSKKLIYFQLHRALKMIVDPVEPHGEMKFQWDLNAWTKSAEAFGKIVAERPGTNSTGPAPMAPPRAPGPLSKQGSGSSQPMEVQEGYGFGSGDDPYSSAEPHVSGVKRSRSGEGEVSGLMRKVPRVSLERLDLDLTADSQPPVFKVFPGSTTEDYNLIVIERGAAAAATGQPGTAPAGTPGAPPLAGMAIVKEEETEAAIGAPPTATEGPETKPVLMALAEGPGAEGPRLASPSGSTSSGLEVVAPEGTSAPGGGPGTLDDSATICRVCQKPGDLVMCNQCEFCFHLDCHLPALQDVPGEEWSCSLCHVLPDLKEEDGSLSLDGADSTGVVAKLSPANQRKCERVLLALFCHEPCRPLHQLATDSTFSLDQPGGTLDLTLIRARLQEKLSPPYSSPQEFAQDVGRMFKQFNKLTEDKADVQSIIGLQRFFETRMNEAFGDTKFSAVLVEPPPMSLPGAGLSSQELSGGPGDGP
notes: Tripartite motif-containing 28 (TRIM28); Plasmids and their construction are in Supplementary file 2; also called TRIM28 fused to a C-terminal moiety of YFP; Prey
fold lower BiFC signal than with tau as prey [1]: ~8 fold | fold lower BiFC signal than with tau as prey [2]: ~8 fold
